Experimental data from patent US20200347143A1 (GLENMARK PHARMACEUTICALS S A, published 2020).
Residue numbers refer to the chain shown, from its start. Blank lines part the entries; values can stand above or below the binder they belong to.

Assays:
[1] = target: T1, human OX40 on cells (human, UniProt P43489 29-277); test: flow cytometry on HPB-ALL cells, 10 µg/ml antibody
T1 construct: whole, on cells; also called OX40 on HPB-ALL cells
T1 sequence (looked up): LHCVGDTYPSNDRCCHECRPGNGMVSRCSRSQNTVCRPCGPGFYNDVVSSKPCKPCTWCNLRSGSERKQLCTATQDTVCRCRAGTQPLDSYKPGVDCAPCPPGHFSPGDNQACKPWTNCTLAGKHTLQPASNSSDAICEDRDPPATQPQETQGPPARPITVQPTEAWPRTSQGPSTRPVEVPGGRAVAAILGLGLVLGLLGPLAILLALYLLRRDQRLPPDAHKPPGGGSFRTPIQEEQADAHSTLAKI
Experimental: HPB-ALL cells (DSMZ, Braunschweig, Germany, Cat. No: ACC483) were used as a human OX40 positive cell line for FACS staining. HPB-ALL were maintained in RPMI 1640 supplemented with 10% FCS and 100 U/ml Penicillin and 100 μg/ml streptomycin. 4×10e5 HPB-ALL cells in FACS buffer (PBS supplemented with 1% BSA and 0.1% sodium azide) were incubated for 45 min on ice with the anti-OX40 antibody of interest kept at a concentration of 10 μg/ml An irrelevant human IgG1 was used as an isotype control; the cells were incubated with a 1/200 dilution of anti-Human Fc-PE (EBioscience, Vienna, Austria) for 45 min on ice. Cells were then washed again and resuspended in 200 μl FACS buffer. The relative mean fluorescence of each sample was measured on a FACSCalibur instrument (BD Biosciences, Allschwil, Switzerland).
A first set of 16 humanized antibodies of human gamma one isotype were prepared. These first humanized candidates were assessed for transient expression in HEK293E cells and binding to HB-ALL cell by flow cytometry (Table 7).

[2] = target: T2, recombinant human OX40-his protein (human, UniProt P43489 29-214); test: SPR (BIAcore 2000), antibody captured on Protein A, OX40-his injected
T2 construct: Secreted via the native signal peptide, which lies within residues 1-214; also called Human OX40R-His; histidine tagged human OX40 receptor extracellular domain
T2 sequence: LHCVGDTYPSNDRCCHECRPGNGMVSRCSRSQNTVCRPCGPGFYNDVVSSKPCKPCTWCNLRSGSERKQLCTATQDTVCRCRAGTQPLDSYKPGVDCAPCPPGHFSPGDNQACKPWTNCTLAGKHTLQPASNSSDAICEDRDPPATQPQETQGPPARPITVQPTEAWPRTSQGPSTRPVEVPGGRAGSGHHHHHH
Experimental: SPR analysis was used to measure the association and dissociation rate constants for the binding kinetics of the anti-OX40 antibodies. The binding kinetics were measured on a BIAcore 2000 (BIAcore-GE Healthcare Europe GmbH, Glattbrugg, Switzerland) at room temperature and analyzed with the BiaEvaluation software (v4.1, GE Healthcare Europe GmbH).
Measurements were performed on CM5 sensor chips (Biacore 2000, GE Healthcare Europe GmbH, Cat. No: BR-1000-14) individually coupled with Protein A (Sigma, Buchs, Switzerland, Cat. No: P7837) using a commercial amine coupling kit (GE Healthcare Europe GmbH, Cat. No: BR-1000-50). 200-600 RUs of humanized antibody were captured. Dilution series of OX40-his were injected at a flow rate of 10 μl/min in HBS-EP buffer (GE Healthcare Europe GmbH, Cat. No: BR1001-88). After each binding event, the surface was regenerated with 10 μl of glycine buffer pH 1.5. Experimental data were processed using a 1:1 Langmuir model with local Rmax. The dissociation time was about 7 min. Measurements were performed in duplicates or triplicates and included zero-concentration samples for referencing. Both Chit and residual values were used to evaluate the quality of a fit between the experimental data and individual binding models.

[3] = target: T1, human OX40 on cells; test: cell-based or functional assay
[4] = target: rat OX40-Fc (rat); test: ELISA on coated rat OX40-Fc
Experimental: (§1) These constructs were expressed in HEK293-EBNA1 cells and purified using protein A. Then, human and rat OX40-Fc were tested in ELISA and Biacore to determine antibody cross-reactivity. For the ELISA, 96 well-microtiter plates (Costar USA, distributor VWR AG, Nyon, Switzerland) were coated with 100 μl of recombinant human or rat OX40-Fc at 2 μg/ml in PBS. Plates were incubated overnight at 4° C. and were then blocked with PBS 2% BSA (Bovine Serum Albumine, PAA Laboratories, Pasching, Austria) at room temperature (RT) for one hour. The blocking solution was removed and the purified antibodies were added at 10 μg/ml in PBS 2% BSA. The plates were incubated at RT for 1 hour, then washed 5 times with PBS 0.01% Tween-20 (Sigma-Aldrich Chemie GmbH, Buchs, Switzerland). […] Plates were incubated for 1 hour at RT, washed 5 times with PBS 0.01% Tween-20 and the TMB substrate (Bio-rad Laboratories AG, Reinach, Switzerland) was added to the plates and the reaction stopped after 5 minutes by adding H₂SO₄. Absorbance was then read at 450 nm by a microplate reader (Biotek, USA; distributor: WITTEC AG, Littau, Switzerland). Biacore experiments were specifically conducted with Hexa-hzG3V9 and Hexa-hz1D10v1 which are dAb-Fc fusion proteins. […] Binding of human and cyno OX40-Fc molecules was determined by successively injecting these proteins on the 4 flow-paths (flow-path 1 and 3 being used as references) at a concentration of 200 nM and a flow rate of 30 uL/min for 240 seconds. Regeneration between the two injections was done using 3M MgCl2, at 30 uL/min for 60 seconds. Using these two approaches, human/rat OX40 binding was assessed (table 16).

[5] = target: T3, human OX40-Fc (human); test: ELISA on coated human OX40-Fc, antibody 10 µg/ml
T3 construct: also called recombinant human OX40-Fc; human OX40 (HHHH)
Experimental: as §1

rat OX40-Fc (rat), sequence (chain, as listed by the source limits assumed): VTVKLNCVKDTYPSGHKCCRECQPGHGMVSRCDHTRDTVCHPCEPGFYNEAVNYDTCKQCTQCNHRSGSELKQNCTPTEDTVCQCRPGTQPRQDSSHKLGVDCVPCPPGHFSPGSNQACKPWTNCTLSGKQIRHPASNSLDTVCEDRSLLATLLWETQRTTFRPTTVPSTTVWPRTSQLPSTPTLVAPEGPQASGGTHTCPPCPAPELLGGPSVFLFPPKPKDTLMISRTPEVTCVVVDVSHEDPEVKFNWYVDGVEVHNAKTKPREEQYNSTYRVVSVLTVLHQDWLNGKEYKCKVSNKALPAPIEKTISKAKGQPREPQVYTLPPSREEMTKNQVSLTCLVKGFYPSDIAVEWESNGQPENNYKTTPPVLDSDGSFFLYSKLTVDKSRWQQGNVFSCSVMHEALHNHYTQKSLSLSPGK

MFI [1]: 120 | Kd [2]: 35 nM | koff [2]: 0.00058 s⁻¹ | kon [2]: 16700 M⁻¹ s⁻¹
B1: Humanized 7H11 VH1/VL1 IgG1 (antibody, V domains shown)
VH: QVQLVQSGAEVKKPGASVKVSCKASGYTFTRYYMHWVRQAPGQGLEWMGWIYPGDGSTKYSQKFQGRVTITRDTSASTAYMELSSLRSEDTAVYYCAREYGNYDYWGQGTLVTVSS
VL: DIVMTQSPDSLAVSLGERATINCKSSQSLLNSGNQKNYLAWYQQKPGQPPKLLIYGASTRESGVPDRFSGSGSGTDFTLTISSLQAEDVAVYYCQNDHSYPYTFGQGTKLEIKR
notes: human IgG1, kappa; also called Humanized VH1-VL1 IgG1

MFI [1]: 120 | Kd [2]: 21 nM | koff [2]: 0.0013 s⁻¹ | kon [2]: 58500 M⁻¹ s⁻¹
B2: Humanized 7H11 VH2/VL1 IgG1 (antibody, V domains shown)
VH: B1 VH with K59N, S61A, I70M, A76I, S85R, E89D
VL: B1 VL
notes: human IgG1, kappa; also called Humanized VH2-VL1 IgG1

MFI [1]: 121 | Kd [2]: 80 nM | koff [2]: 0.0055 s⁻¹ | kon [2]: 62500 M⁻¹ s⁻¹
B3: Humanized 7H11 VH3/VL1 IgG1 (antibody, V domains shown)
VH: B1 VH with W50I, K59S, S61A, I70M, A76T, A79V
VL: B1 VL
notes: human IgG1, kappa; also called Humanized VH3-VL1 IgG1

% donor responder (>2), SEB assay, IL-2 release [3]: 50% | Mean, normalized IL-2 release, SEB assay [3]: 2.36 | binding result [4]: no binding (tested: 10 µg/ml) | binding result [5]: binds
B4: 9B12 IgG1 (antibody, V domains shown)
VH: QVQLQESGPGLVKPSQTLSLTCAVYGGSFSSGYWNWIRKHPGKGLEYIGYISYNGITYHNPSLKSRITINRDTSKNQYSLQLNSVTPEDTAVYYCARYKYDYDGGHAMDYWGQGTLVTVSS
VL: DIQMTQSPSSLSASVGDRVTITCRASQDISNYLNWYQQKPGKAPKLLIYYTSKLHSGVPSRFSGSGSGTDYTLTISSLQPEDFATYYCQQGSALPWTFGQGTKVEIKR
notes: also called OX40mab24

binding result [5]: binds
B5: 1A7 IgG1 (antibody, V domains shown)
VH: EVQLVQSGAEVKKPGASVKVSCKASGYTFTDSYMSWVRQAPGQGLEWIGDMYPDNGDSSYNQKFRERVTITRDTSTSTAYLELSSLRSEDTAVYYCVLAPRWYFSVWGQGTLVTVSS
VL: B4 VL with K53R, H55R, Y71F, S92H, A93T, W96P

% donor responder (>2), SEB assay, IL-2 release [3]: 18% | Mean, normalized IL-2 release, SEB assay [3]: 1.87 | binding result [4]: no binding (tested: 10 µg/ml)
B6: 11D4 IgG2 (antibody, V domains shown)
VH: EVQLVESGGGLVQPGGSLRLSCAASGFTFSSYSMNWVRQAPGKGLEWVSYISSSSSTIDYADSVKGRFTISRDNAKNSLYLQMNSLRDEDTAVYYCARESGWYLFDYWGQGTLVTVSS
VL: DIQMTQSPSSLSASVGDRVTITCRASQGISSWLAWYQQKPEKAPKSLIYAASSLQSGVPSRFSGSGSGTDFTLTISSLQPEDFATYYCQQYNSYPPTFGGGTKVEIKR

% donor responder (>2), SEB assay, IL-2 release [3]: 0% | Mean, normalized IL-2 release, SEB assay [3]: 0.96
B7: Tri-8 (bispecific antibody, human IgG1, kappa, L234A L235A)
heavy 1: QVQLVQSGAEVKKPGASVKVSCKASGYTFTRYYMHWVRQAPGQGLEWMGWIYPGEGSTKYAQKFQGRVTMTRDTSISTAYMELSRLRSDDTAVYYCAREYGNYDYWGQGTLVTVSSASTKGPSVFPLAPSSKSTSGGTAALGCLVKDYFPEPVTVSWNSGALTSGVHTFPAVLQSSGLYSLSSVVTVPSSSLGTQTYICNVNHKPSNTKVDKKVEPKSCDKTHTCPPCPAPEAAGGPSVFLFPPKPKDTLMISRTPEVTCVVVDVSHEDPEVQFKWYVDGVEVHNAKTKPREEQYNSTFRVVSVLTVLHQDWLNGKEYKCKVSNKALPAPIEKTISKTKGQPREPAVYTLPPSREEMTKNQVKLVCLVTGFYPSDIAVEWESSGQPENNYYTTPPMLDSDGSFSLVSWLNVDKSRWQQGNIFSCSVMHEALHNRFTQKSLSLSPGGGGGTEVQLVESGGGLVQPGGSLRLSCAVSGYSITSDYAWNWIRQAPGKCLEWMGYISYSGSTAYNPSLKSRITISRDTSKNTFYLQMSSLRAEDTAVYYCARGPYNYLAYWGQGTLVTVSSGGGGSGGGGSGGGGSDIQLTQSPSSLSASVGDRVTITCRASESVDNYGISFMNWFQQKPGKAPKLLIYAASNQKSGVPSRFSGSGSGTDFTLTISSLQPEDFATYFCQQSKEVPLTFGCGTKVEIL
heavy 2: QVQLVQSGAEVKKPGASVKVSCKASGYTFTRYYMHWVRQAPGQGLEWMGWIYPGEGSTKYAQKFQGRVTMTRDTSISTAYMELSRLRSDDTAVYYCAREYGNYDYWGQGTLVTVSSASTKGPSVFPLAPSSKSTSGGTAALGCLVKDYFPEPVTVSWNSGALTSGVHTFPAVLQSSGLYSLSSVVTVPSSSLGTQTYICNVNHKPSNTKVDKKVEPKSCDKTHTCPPCPAPEAAGGPSVFLFPPKPKDTLMISRTPEVTCVVVDVSHEDPEVKFNWYVDGVEVHNAKTKPREEQYNSTYRVVSVLTVLHQDWLNGKEYKCKVSNKALPAPIEKTISKAKGQPREPEVATFPPSRDELTKNQVTLVCLVTGFYPSDIAVEWESNGQPENNYKTDPPLLESQGSFALSSRLRVDKSRWQQGNVFSCSVMHEALHNHYTQKSLSLSPGK
light: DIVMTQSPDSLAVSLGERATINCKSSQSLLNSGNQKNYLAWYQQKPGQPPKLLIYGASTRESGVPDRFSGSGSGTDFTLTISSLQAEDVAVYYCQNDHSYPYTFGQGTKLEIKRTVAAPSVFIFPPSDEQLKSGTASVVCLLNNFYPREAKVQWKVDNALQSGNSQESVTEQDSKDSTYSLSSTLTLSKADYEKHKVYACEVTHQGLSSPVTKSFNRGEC

% donor responder (>2), SEB assay, IL-2 release [3]: 100% | Mean, normalized IL-2 release, SEB assay [3]: 48.4
B8: 2H6_hzG3v9_8 (bispecific antibody, human IgG1, kappa, L234A L235A)
heavy: not shown
light: DIQLTQSPSSLSASVGDRVTITCRASESVDNYGISFMNWFQQKPGKAPKLLIYAASNQKSGVPSRFSGSGSGTDFTLTISSLQPEDFATYFCQQSKEVPLTFGQGTKVEIKRTVAAPSVFIFPPSDEQLKSGTASVVCLLNNFYPREAKVQWKVDNALQSGNSQESVTEQDSKDSTYSLSSTLTLSKADYEKHKVYACEVTHQGLSSPVTKSFNRGEC

% donor responder (>2), SEB assay, IL-2 release [3]: 6% | Mean, normalized IL-2 release, SEB assay [3]: 0.86 | binding result [4]: no binding (tested: 10 µg/ml) | binding result [5]: binds
B9: 106-222 IgG1 (antibody, V domains shown)
VH: QVQLVQSGSELKKPGASVKVSCKASGYTFTDYSMHWVRQAPGQGLKWMGWINTETGEPTYADDFKGRFVFSLDTSVSTAYLQISSLKAEDTAVYYCANPYYDYVSYYAMDYWGQGTTVTVSS
VL: DIQMTQSPSSLSASVGDRVTITCKASQDVSTAVAWYQQKPGKAPKLLIYSASYLYTGVPSRFSGSGSGTDFTFTISSLQPEDIATYYCQQHYSTPRTFGQGTKLEIKR
